According to publication PMC5114558 (2016):
Values joined by “and” are separate entries in the source; they are usually repeats but may differ in a detail not shown here. Identical values can stand only once. Like-named read-outs stand apart in the source and are kept apart here. Each block holds one binder with its values, some of them ahead of it. Non-standard residues stand in square brackets, D forms with d. No end group written: not given here. Me2a = asymmetric dimethyl (on arginine); pT = C[C@@H](OP(=O)(O)O)[C@H](N)C(=O)O

B4: KDM4C double tudor domain (KDM4C-DTD), HaloTag-tagged, wild type (domain or fragment)
chain: KVISVGQTVITKHRNTRYYSCRVMAVTSQTFYEVMFDDGSFSRDTFPEDIVSRDCLKLGPPAEGEVVQVKWPDGKLYGAKYFGSNIAHMYQVEFEDGSQIAMKREDIYTLDEELP
B8: KDM4B double tudor domain (KDM4B-DTD), HaloTag-tagged, wild type (domain or fragment)
chain: RAVSLGQVVITKNRNGLYYRCRVIGAASQTCYEVNFDDGSYSDNLYPESITSRDCVQLGPPSEGELVELRWTDGNLYKAKFISSVTSHIYQVEFEDGSQLTVKRGDIFTLEEELP
B12: KDM4A-DTD N931D (domain or fragment)
chain: ALQSITAGQKVISKHKNGRFYQCEVVRLTTETFYEVDFDDGSFSDNLYPEDIVSQDCLQFGPPAEGEVVQVRWTDGQVYGAKFVASHPIQMYQVEFEDGSQLVVKRDDVYTLDEELP
B13: KDM4A double tudor domain (KDM4A-DTD), HaloTag-tagged, wild type (domain or fragment)
chain: ALQSITAGQKVISKHKNGRFYQCEVVRLTTETFYEVNFDDGSFSDNLYPEDIVSQDCLQFGPPAEGEVVQVRWTDGQVYGAKFVASHPIQMYQVEFEDGSQLVVKRDDVYTLDEELP
B14: KDM4A-DTD triple mutant N931D/D939R/D945R (DRR) (domain or fragment)
chain: ALQSITAGQKVISKHKNGRFYQCEVVRLTTETFYEVDFDDGSFSRNLYPERIVSQDCLQFGPPAEGEVVQVRWTDGQVYGAKFVASHPIQMYQVEFEDGSQLVVKRDDVYTLDEELP
modifications: HaloTag-Alexa 660 ligand conjugated to the HaloTag in the far western

Legend:
Experiment in all cases: FP
KDM4A-DTD N931D = molecular target: B12
[1] = molecular target: B4
[2] = molecular target: B8
[3] = molecular target: B4
[4] = molecular target: B8
H3K27me3 [5] = molecular target: H3K27me3
[6] = molecular target: B14
[7] = molecular target: B13
ING2-PHD = molecular target: T1, ING2-PHD
T1 chain: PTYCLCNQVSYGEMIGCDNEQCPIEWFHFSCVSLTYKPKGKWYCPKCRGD

KDM4B-DTD N960A = KDM4B-DTD N960A (human, UniProt O94953 917-1031, N960A)
KDM4B-DTD S965D = KDM4B-DTD S965D (human, UniProt O94953 917-1031, S965D)
KDM4B-DTD N951G = molecular target: T2, KDM4B-DTD N951G (Homo sapiens)
T2 chain: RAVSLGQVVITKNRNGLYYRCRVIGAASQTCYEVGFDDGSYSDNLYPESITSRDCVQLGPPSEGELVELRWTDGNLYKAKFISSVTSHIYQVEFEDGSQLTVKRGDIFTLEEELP

KDM4B-DTD N951M = molecular target: T3, KDM4B-DTD N951M (Homo sapiens)
T3 chain: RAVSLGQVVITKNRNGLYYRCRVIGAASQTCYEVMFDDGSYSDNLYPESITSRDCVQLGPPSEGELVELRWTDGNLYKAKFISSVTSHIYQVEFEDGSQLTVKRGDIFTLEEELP

H3K9me3 [8] = molecular target: H3K9me3
KDM4A-DTD N940A = molecular target: T4, KDM4A-DTD N940A (human, UniProt O75164 895-1011, N940A)
T4 sequence: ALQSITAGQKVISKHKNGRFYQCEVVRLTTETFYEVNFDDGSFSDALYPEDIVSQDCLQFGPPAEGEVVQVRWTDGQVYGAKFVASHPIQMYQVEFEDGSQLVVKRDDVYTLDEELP

KDM4A-DTD D945S = molecular target: T5, KDM4A-DTD D945S (human, UniProt O75164 895-1011, D945S)
T5 sequence: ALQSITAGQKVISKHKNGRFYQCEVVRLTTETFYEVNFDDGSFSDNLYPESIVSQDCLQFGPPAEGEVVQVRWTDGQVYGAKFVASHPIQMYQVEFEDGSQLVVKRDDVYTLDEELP

H3K9me3 [9] = molecular target: H3K9me3; remark: listed apart in the source
H3K27me3 [10] = molecular target: H3K27me3; remark: listed apart in the source
H3T3phK4me3 peptide = H3T3phK4me3 peptide (UniProt P68431, phosphothreonine at T3; trimethyl-lysine at K4)
H3K27me3 [11] = molecular target: H3K27me3; remark: listed apart in the source

Sequence of KDM4B-DTD S965D (O94953 917-1031 S965D): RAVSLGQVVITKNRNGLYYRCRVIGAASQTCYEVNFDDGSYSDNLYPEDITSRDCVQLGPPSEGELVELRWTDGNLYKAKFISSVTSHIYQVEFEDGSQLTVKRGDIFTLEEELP
Sequence of KDM4B-DTD N960A (O94953 917-1031 N960A): as the sequence (O94953 917-1031 S965D) above, with N44A, D49S counted along it

Kd (KDM4A-DTD N931D): 6 µM | Kd [1]: 43.7 µM | Kd [2]: 53.1 µM
B1: H3K23me3R26me2a peptide, fluorescein-labelled (peptide)
chain: RKQLATK(Me3)AAR(Me2a)KSAPAT
modifications: also: fluorescein label, end not given here

Kd [3]: 58.7 µM | Kd [4]: 60 µM
B2: H4K20me3 peptide, fluorescein-labelled (peptide)
chain: AKRHRK(Me3)VLRDN
modifications: also: fluorescein label, end not given here

Kd (KDM4A-DTD N931D): 2.6 µM | Kd [1]: 180 µM | Kd [2]: 35.3 µM
B3: H3K23me2 peptide (dimethylated H3K23), fluorescein-labelled (peptide)
chain: RKQLATK(Me2)AARKSAPAT
modifications: also: fluorescein label, end not given here

Binder: B4
Kd (H3K27me3 [5]): 104 µM

Kd [6]: 158 µM | Kd [3]: 166 µM | Kd [4]: 165 µM | Kd [7]: 108 µM
B5: H3K14me3 peptide, fluorescein-labelled (peptide)
chain: ARKSTGGK(Me3)APRKQLATK
modifications: also: fluorescein label, end not given here

Kd (ING2-PHD): 257 µM | Kd (KDM4B-DTD N960A): 107 µM | Kd (KDM4B-DTD S965D): 16.4 µM | Kd (KDM4B-DTD N951G): 32.6 µM | Kd (KDM4B-DTD N951M): 41.4 µM | Kd [3]: 73.6 µM
B6: H3 (17-32) K23me3 peptide, fluorescein-labelled (peptide)
chain: RKQLATK(Me3)AARKSAPAT
modifications: also: fluorescein label, end not given here

Kd (KDM4A-DTD N931D): 18.7 µM | Kd [1]: 507 µM | Kd [2]: 130 µM and 259 µM
B7: H3T22phK23me3 peptide, fluorescein-labelled (peptide)
chain: RKQLA[pT]K(Me3)AARKSAPAT
modifications: also: fluorescein label, end not given here

Binder: B8
Kd (H3K9me3 [8]): 800 µM | Kd (H3K27me3 [5]): 140 µM

Kd (KDM4A-DTD N931D): 31.1 µM | Kd [1]: 520 µM | Kd [2]: 155 µM
B9: H3K23me1 peptide (monomethylated H3K23), fluorescein-labelled (peptide)
chain: RKQLATK(Me)AARKSAPAT
modifications: also: fluorescein label, end not given here

Kd (KDM4A-DTD N931D): 2.7 µM | Kd (ING2-PHD): 5.8 µM | Kd [6]: 370 µM | Kd (KDM4A-DTD N940A): 74.1 µM | Kd (KDM4A-DTD D945S): 151 µM | Kd [7]: 2.7 µM
B10: H3K4me3 peptide, fluorescein-labelled (peptide)
chain: ARTK(Me3)QTARKSTGGK
modifications: also: fluorescein label, end not given here

Kd (KDM4A-DTD N931D): 27.7 µM | Kd [1]: 72.5 µM | Kd [2]: 180 µM
B11: H3K23me3R26A peptide, fluorescein-labelled (peptide)
chain: RKQLATK(Me3)AAAKSAPAT
modifications: also: fluorescein label, end not given here

Binder: B12
Kd (H3K9me3 [9]): 83.3 µM | Kd (H3K27me3 [10]): 98.6 µM

Binder: B13
Kd (H3T3phK4me3 peptide): 122 µM | Kd (H3K27me3 [5]): 122 µM

Binder: B14
Kd (H3K27me3 [11]): 570 µM
